Laboratory results from paper PMC6404747.

Molecular target: Smurf (UniProt Q9V853)
Experiment: co-IP Myc-Smo / Fg-Smurf
Details: reference: wild-type Myc-Smo plus Hh; sites S667,S687,S740

“Smoothened (Smo) (from UniProt P91682) Myc-SmoSA plus Hh” was tested, and the “binding against the reference” value was “stronger”.
